Our source for the protein stability index values is the supplement of paper PMC10567573.

± gives the standard deviation.

The data set in a line: protein stability index of a GFP-peptide fusion (GPS, HEK-293T) (PSI 1-6); higher = more stable. To be noted: c terminus: a fixed tail appended.
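Further: 24-mer peptide tiles fused after GFP, lentivirally expressed, FACS-sorted into six equal bins by GFP/DsRed ratio, decoded by Illumina sequencing, PSI is the read-weighted mean bin number.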

In the case of SYSLSRKKIVHYTCFDQRKRANAA [CDC14A], the protein stability index reads like this: (treatment: DMSO) 2.88 ± 0.28; (treatment: MLN4924 1 uM, 8 h) 3.05 ± 0.12.
On the same counts, the results for TAFLLNIQLFEELQELLTHDTKDQ [HMOX1] are 2.32 ± 0.28 and 2.49 ± 0.44.
In the case of TAGQERYRAITSAYYRGAVGALLV [RAB11A], the protein stability index runs as follows: (treatment: DMSO) 2.22 ± 0.24; (treatment: MLN4924 1 uM, 8 h) 2.19 ± 0.24.
On the same counts, the results for TAPEEVPKVSDQALVSAHSEWQRK [DMRTC1] are 4.88 ± 0.61 and 5.07 ± 0.39.
TARPFGAPPPADSAPQQNGQPLRP [PDLIM7]: the protein stability index came to 4.84 ± 0.52 (treatment: DMSO) and 4.92 ± 0.058 (treatment: MLN4924 1 uM, 8 h).
The corresponding values for TEYIESPDVENEVKRLLRSDAEAV [TAF7L] are 4.97 ± 0.33 and 5.03 ± 0.22.
The corresponding values for TFGFITMTPQLFINYKLKSVAHLP [CLPTM1] are 2.59 ± 0.47 and 2.92 ± 0.86.
In the case of TGDPLPEISKDNSCKENCTCSSCL [EDARADD], the protein stability index runs as follows: (treatment: DMSO) 5.47 ± 0.3; (treatment: MLN4924 1 uM, 8 h) 5.47 ± 0.26.
The corresponding values for TGIEGNWGRLLEQVGTMALWASQR [ZBED2] are 1.98 ± 0.57 and 2.48 ± 0.49.
On the same counts, the results for TGILLHPWLRQDPMPLAPTRSHLW [TRIB3] are 2.11 ± 0.25 and 2.18 ± 0.089.
For the setting “treatment: MLN4924 1 uM, 8 h”, TGVFITLSIVLERMRYEGVVDIFQ [PTPRD] gave a protein stability index of 3.66 ± 0.2.
THFASQEFFSANAISDQLLGAGSD [ADAMTSL2]: the protein stability index runs as follows: (treatment: DMSO) 4.27 ± 0.23; (treatment: MLN4924 1 uM, 8 h) 4.23 ± 0.25.
The corresponding values for TIENILDNDPRDLIGDFSKGYLFH [CDC25A] are 2.58 ± 0.38 and 2.69 ± 0.19.
On the same counts, the results for TIPLFVQLLYSPIENIQRVAAGVL [CTNNB1] are 2.77 ± 0.78 and 2.71 ± 0.38.
On the same counts, the results for TISFICRELDAISTNEEEKEENEA [PRIM1] are 5.16 ± 0.26 and 5.16 ± 0.1.
In turn, TITAPPSRVLQNGGDKLETMPLYL [SCD] had a protein stability index (treatment: DMSO) of 3.5 ± 0.41 and a protein stability index (treatment: MLN4924 1 uM, 8 h) of 3.43 ± 0.29.
For TKVRKQEIIKVTEQLIEAISNGDF [CAMK2A], the protein stability index is, setting by setting: (treatment: DMSO) 2.38 ± 0.32; (treatment: MLN4924 1 uM, 8 h) 2.66 ± 0.42.
Consider TLAALLLNRSESDIRYLLGYVSQQ [FEM1B], for which the protein stability index was found to be 2.39 ± 0.42 (treatment: DMSO) and 2.52 ± 0.61 (treatment: MLN4924 1 uM, 8 h).
The corresponding values for TLIMLLSLAAFSVISVVSYLILAL [RTN3] are 2.58 ± 0.36 and 2.12 ± 0.11.
On the same counts, the results for TLNILLYEAQDGRGPDNALLEATG [KCTD10] are 2.92 ± 0.21 and 3.29 ± 0.31.
The corresponding values for TLNKCAVMKLEISPHRKRSDDSDE [DLC1] are 4.11 ± 0.31 and 4.29 ± 0.094.
As for TMNRRVCVLMLLAAWIGGFLHSLV [OR4A15], the protein stability index was 2.53 ± 0.36 (treatment: DMSO) and 2.18 ± 0.24 (treatment: MLN4924 1 uM, 8 h).
On the same counts, the results for TNTRRGSRAPCKVQGLEGIKMAMV [NEK8] are 2.32 ± 0.25 and 2.32 ± 0.23.
On the same counts, the results for TNTRSDLDVFGRGDNISDVSKFLE [LUC7L3] are 4.67 ± 0.16 and 4.76 ± 0.19.
The corresponding values for TPGDCPPGRRDEDAGEGIQCSQRM [TMEM175] are 5.15 ± 0.37 and 5.25 ± 0.18.
Consider TPLHRDKTPLHQKHAAFVTPDQKY [MYBL2], for which the protein stability index runs as follows: (treatment: DMSO) 4.11 ± 0.2; (treatment: MLN4924 1 uM, 8 h) 4.08 ± 0.24.
As for TPSVPPPASQHSTPAGLPPSRAKP [FBF1], the protein stability index was 5.3 ± 0.25 (treatment: DMSO) and 5.22 ± 0.23 (treatment: MLN4924 1 uM, 8 h).
The corresponding values for TQAPPSVILGVTNPFFAKTLQHWP [DENND6A] are 2.26 ± 0.24 and 2.12 ± 0.17.
For TQDSARVNPQDGTNTLTRIAENGV [EHMT1], the protein stability index came to 5.11 ± 0.16 (treatment: DMSO) and 5.1 ± 0.19 (treatment: MLN4924 1 uM, 8 h).
On the same counts, the results for TQEKKRLSRTNEELLWKLQTGDPT [MTUS2] are 4.46 ± 0.34 and 4.36 ± 0.11.
On the same counts, the results for TRRVTFEADENENITVVKGIRLSE [CHCHD3] are 4.29 ± 0.13 and 4.47 ± 0.23.
TSAAYRYYIDDVFHALVREIRRKE [RIT1]: the protein stability index is, setting by setting: (treatment: DMSO) 2.16 ± 0.36; (treatment: MLN4924 1 uM, 8 h) 2.35 ± 0.26.
The corresponding values for TSEKLGEWNEKVTQSDLYKKTQET [TPD52L2] are 5.13 ± 0.28 and 5.1 ± 0.063.
As for TSIEPSKSSIIPFRALKRPLQFLG [ZER1], the protein stability index (treatment: DMSO) worked out at 2.42 ± 0.38 and the protein stability index (treatment: MLN4924 1 uM, 8 h) is 2.22 ± 0.16.
On the same counts, the results for TSQEIFRQRFRHLRYQETPGPREA [ZNF232] are 3.63 ± 0.36 and 3.6 ± 0.28.
On the same counts, the results for TSQFLSLQCLQALYVDSLFFLRGR [PRAME] are 2.49 ± 0.67 and 2.96 ± 0.82.
On the same counts, the results for TTMNYPLWSQSYEDSSNQEEEGPS [MAGEA3] are 5.43 ± 0.11 and 5.36 ± 0.13.
On to TVGCSSQHTPDQANSDRASIGRRR [PLEKHN1], for which the protein stability index reads like this: (treatment: DMSO) 5.04 ± 0.36; (treatment: MLN4924 1 uM, 8 h) 5.02 ± 0.15.
In the case of TVQHGAVYSLEPRLCGGKGGFGSM [SDE2], the protein stability index was determined as 2.33 ± 0.37 (treatment: DMSO) and 2.39 ± 0.29 (treatment: MLN4924 1 uM, 8 h).
On the same counts, the results for TVRFCILGKESFYDTFHTVADMMY [HACD3] are 2.8 ± 0.69 and 2.85 ± 0.78.
The corresponding values for TVVKSLIDNSSEIEDEDQILENSS [FAN1] are 5.202 ± 0.02 and 5.38 ± 0.13.
The corresponding values for VAAALRYLQIFATRRSCIDESQIS [FAM189A2] are 2.37 ± 0.37 and 2.41 ± 0.17.
As to VAEITKQLPPVVPVSKPGALRRSL [TCAP], the protein stability index is 5.15 ± 0.15 (treatment: DMSO) and 5.2 ± 0.29 (treatment: MLN4924 1 uM, 8 h).
The corresponding values for VAIFIMSLNKRHSSGDGNSKLKSE [MFSD9] are 2.77 ± 1.2 and 2.16 ± 0.12.
On the same counts, the results for VANRHGHTCLMISCYKGHREIARY [FEM1A] are 2.54 ± 0.5 and 2.41 ± 0.67.
The corresponding values for VAPATMGSARSHASSRASENQSPS [ZBTB22] are 4.96 ± 0.073 and 5.07 ± 0.14.
Consider VASLERFSTYTSDKDENKLSEASG [ZC3H15], for which the protein stability index by setting is: (treatment: DMSO) 5.01 ± 0.42; (treatment: MLN4924 1 uM, 8 h) 4.96 ± 0.2.
The corresponding values for VDGPDLEMLTGQERVALANRKREC [FKBP8] are 4.96 ± 0.16 and 5.14 ± 0.2.
The corresponding values for VDYTGQAKAQVRKAVQYEEKNPCR [STX11] are 4.37 ± 0.17 and 4.59 ± 0.18.
The corresponding values for VEISRRLRHSNPRADPLVCATGLL [SPNS1] are 2.22 ± 0.11 and 2.31 ± 0.32.
As for VEKQGDTIEYLKRHNALLSKRLLA [TMEM192], the protein stability index reads like this: (treatment: DMSO) 2.87 ± 0.13; (treatment: MLN4924 1 uM, 8 h) 2.93 ± 0.27.
Consider VEQGERALERRRRALQEEERAAAQ [ZBED3], for which the protein stability index is, setting by setting: (treatment: DMSO) 5.5 ± 0.2; (treatment: MLN4924 1 uM, 8 h) 5.29 ± 0.38.
For VESLKRFCASTRLPPTPLLLFPEE [AUP1], the protein stability index stood at 2.81 ± 0.35 (treatment: DMSO) and 3.01 ± 0.35 (treatment: MLN4924 1 uM, 8 h).
